Experimental data reported in publication PMC3713010, “Sox2 Transcriptionally Regulates Pqbp1, an Intellectual Disability-Microcephaly Causative Gene, in Neural Stem Progenitor Cells”.

T1: Brn2 DNA-binding domain (BD-Brn2) (Mus musculus (B6), UniProt P31360 336-435)
T1 sequence: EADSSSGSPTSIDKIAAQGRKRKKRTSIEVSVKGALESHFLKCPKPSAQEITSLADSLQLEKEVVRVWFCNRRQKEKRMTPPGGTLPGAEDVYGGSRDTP

T2: Oct6 DNA-binding domain (BD-Oct6) (Mus musculus (B6), UniProt P21952 317-416)
T2 sequence: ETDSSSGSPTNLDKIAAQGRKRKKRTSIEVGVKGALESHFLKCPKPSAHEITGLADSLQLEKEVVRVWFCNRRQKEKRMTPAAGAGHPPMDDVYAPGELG

B1: 117 (dsDNA)
DNA 1: GGGGGGAAAAACAAAGATTTAGTATAAACCCCC
DNA 2: GGGGGTTTATACTAAATCTTTGTTTTTCCCCCC
B2: 118 (dsDNA)
DNA 1: GGGGGGACAAGGGTCAATTTGCTAGACAAAGATCTTCACCCCC
DNA 2: GGGGGTGAAGATCTTTGTCTAGCAAATTGACCCTTGTCCCCCC
B3: 11 (dsDNA)
DNA 1: GGGGGGTGGGGTACAAAAATGGCCCTTTGTGATCAACTCCCCC
DNA 2: GGGGGAGTTGATCACAAAGGGCCATTTTTGTACCCCACCCCCC
B4: 119 (dsDNA)
DNA 1: GGGGGCCGATCGCTTTGTTCTACATTTTATGTTCTATCCCCC
DNA 2: GGGGGATAGAACATAAAATGTAGAACAAAGCGATCGGCCCCC
B5: 120 (dsDNA)
DNA 1: GGGGGTCCACACTCTATAATCTCACATTGTTTGGCACCCCCCC
DNA 2: GGGGGGGTGCCAAACAATGTGAGATTATAGAGTGTGGACCCCC
B6: 121 (dsDNA)
DNA 1: GGGGGGTGCTCAATTTGTGTTAGCTATTACTAGCAAGTCATTAACTCACCCCCC
DNA 2: GGGGGGTGAGTTAATGACTTGCTAGTAATAGCTAACACAAATTGAGCACCCCCC
B7: 122 (dsDNA)
DNA 1: GGGGGGAAAAGGATTTGTACTTAAATAAGCACCTGGCCCCCC
DNA 2: GGGGGGCCAGGTGCTTATTTAAGTACAAATCCTTTTCCCCCC
B8: 123 (dsDNA)
DNA 1: GGGGGAGTGCTATTTTGTCGAGAAATTGTAGAAGACACCCCC
DNA 2: GGGGGTGTCTTCTACAATTTCTCGACAAAATAGCACTCCCCC
B9: 124 (dsDNA)
DNA 1: GGGGGCTTATGCTTCTATTCTACACAATTCCACAACCCCCC
DNA 2: GGGGGGTTGTGGAATTGTGTAGAATAGAAGCATAAGCCCCC
B10: 125 (dsDNA)
DNA 1: GGGGGGGGATGCAATTGTCAGTCACCTTTCTTGAGCCTGTGGGACCCCC
DNA 2: GGGGGTCCCACAGGCTCAAGAAAGGTGACTGACAATTGCATCCCCCCCC
B11: 126 (dsDNA)
DNA 1: GGGGGAATGTTGTCATAATTGAAAAAGACAAAGCACTAATCCCCC
DNA 2: GGGGGATTAGTGCTTTGTCTTTTTCAATTATGACAACATTCCCCC
B12: 127 (dsDNA)
DNA 1: GGGGGTTTTGTTTTTTGTTTAAAGCAATAACATATTCAGCCCCC
DNA 2: GGGGGCTGAATATGTTATTGCTTTAAACAAAAAACAAAACCCCC

Columns and labels:
Assay in all cases: EMSA; 10% glycerol, 20 mM HEPES pH 7.8, 45 mM KCl, 10 mM NaCl, 1 mM EDTA, 1 mM DTT, 0.2 ug/uL BSA, 0.1% NP-40, 50 ng poly-dIdC; 20 ng each GST protein; room temperature 30 min (heterodimers 4 C); 6% PAGE 0.25x TBE
Conditions in all cases: protein: recombinant; tags: GST (N-terminal, pGEX-6P-1); label: 32P-dCTP fill-in of the 5' (dG)5 overhangs of both strands (Methods; control probes are given with GGG)
[1] = target: Pax6 DNA-binding domain (BD-Pax6) (Mus musculus (B6), UniProt P63015 190-289)
Chain of Pax6 DNA-binding domain (BD-Pax6) (P63015 190-289): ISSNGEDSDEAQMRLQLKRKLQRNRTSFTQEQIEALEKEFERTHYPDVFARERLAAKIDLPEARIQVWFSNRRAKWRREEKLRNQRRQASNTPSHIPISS
In short: (§1)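 Candidate cis-element oligonucleotides were annealed, labelled with 32P-dCTP and tested against GST-tagged transcription factor DNA-binding domains made in E. coli BL21 and purified on glutathione-sepharose. For each binding reaction, 20 ng protein was combined with 40,000–50,000 cpm probe and 50 ng poly-dIdC in HEPES/KCl glycerol buffer containing BSA and detergent for 30 min at room temperature. Gels of 6% polyacrylamide in 0.25×TBE were run at 4°C, and band radioactivity was measured on a BAS4000 imager. The readout for DNA binding was the band signal in the expected shift region.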

[2] = target: T1, Brn2 DNA-binding domain (BD-Brn2)
In short: as §1

[3] = target: T2, Oct6 DNA-binding domain (BD-Oct6)
In short: as §1

Row | Binder | binding result [1] | binding result [2] | binding result [3]
1 | B1 | no binding | no binding | no binding
2 | B2 | no binding | no binding | no binding
3 | B3 | no binding | no binding | no binding
4 | B4 | no binding | no binding | no binding
5 | B5 | no binding | no binding | binds
6 | B6 | binds | binds | binds
7 | B7 | no binding | binds | binds
8 | B8 | no binding | no binding | no binding
9 | B9 | no binding | no binding | no binding
10 | B10 | no binding | binds | binds
11 | B11 | binds | binds | binds
12 | B12 | binds | binds | binds
